Key:
Test in all cases: Mass spectroscopy proteomics, semi-quantitative binding affinity of serum proteins (plaqueproteome, Table 2)
Conditions in all cases: higher number = stronger affinity
[1] = target: T1, Abeta-42 plaque particles (Homo sapiens, UniProt P05067)
T1 construct: Abeta 1-42
Summary of the method: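 AD patient serum or plasma (50% in PBS) was incubated with Abeta-42 aggregates (30 μg) for 1 h at 37 °C, then stained with Thioflavin S for 30 min. Labeled particles were FACS-sorted, trypsin/Lys-C digested overnight and analyzed by MS/MS. Sequest searched human UniProt; Scaffold/Protein Prophet validated the identifications.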

[2] = system: High Density cholesterol (Chl Large) plaque particles; parameters: species or system human
Summary of the method: (§1)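 Serum or plasma from atherosclerotic subjects, diluted to 50% in PBS, was incubated with cholesterol aggregates (30 μg per 1 mL reaction) at 37° C for 1 hr. Small and large cholesterol plaque particles were sorted by flow cytometry gating, trypsin-digested and analysed by MS/MS against a human UniProt database.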

[3] = system: Low density cholesterol (Chl small) plaque particles; parameters: species or system human
Summary of the method: as §1

[4] = target: T2, alpha-synuclein plaque particles (Homo sapiens, UniProt P37840)
T2 construct: 140 amino acids polypeptide
Summary of the method: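 AD-subject plasma or serum (800 μL of 50%) mixed with 30 μg preformed alpha-synuclein aggregates for 1 h at 37 °C; Thioflavin S-positive particles isolated by flow sorting. After reduction, acrylamide alkylation and overnight tryptic digestion, serum proteins identified by MS/MS with Sequest and Scaffold.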

Tau plaque particles = system: Tau plaque particles; parameters: species or system human
Summary of the method: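 Synthetic Tau-74 and Tau-275 peptides (1 mg/mL PBS, 37° C, 2 h) aggregated; 30 μg aggregates incubated with 50% serum/plasma 1 h at 37° C, stained with Thioflavin S, and plaque particles sorted by flow cytometry. Bound proteins trypsin-digested and identified by MS/MS against human UniProt.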

Row | Molecule | Semi-quantitative analysis of proteins binding to different plaque particles: Abeta-42 [1] | Semi-quantitative analysis of proteins binding to different plaque particles: Chl Large [2] | Semi-quantitative analysis of proteins binding to different plaque particles: Chl small [3] | Semi-quantitative analysis of proteins binding to different plaque particles: Synuclein [4] | Semi-quantitative analysis of proteins binding to different plaque particles: Tau (Tau plaque particles)
1 | Isoform LMW of Kininogen-1 (protein) QESQSEEIDCNDKDLFKAVDAALKKYNSQNQSNNQFVLYRITEATKTVGSDTFYSFKYEIKEGDCPVQSGKTWQDCEYKDAAKAATGECTATVGKRSSTKFSVATQTCQITPAEGPVVTAQYDCLGCVHPISTQSPDLEPILRHGIQYFNNNTQHSSLFMLNEVKRAQRQVVAGLNFRITYSIVQTNCSKENFLFLTPDCKSLWNGDTGECTDNAYIDIQLRIASFSQNCDIYPGKDFVQPPTKICVGCPRDIPTNSPELEETLTHTITKLNAENNATFYFKIDNVKKARVQVVAGKKYFIDFVARETTCSKESNEELTESCETKKLGQSLDCNAEVYVVPWEKKIYPTVNCQPLGMISLMKRPPGFSPFRSSRIGEIKEETTSHLRSCEYKGRPPKAGAEPASEREVS | 0 | 4 | 8 | 6 | 1
2 | Cluster of Kininogen-1 (protein, UniProt P01042 19-644, looked up) Kininogen-1: QESQSEEIDCNDKDLFKAVDAALKKYNSQNQSNNQFVLYRITEATKTVGSDTFYSFKYEIKEGDCPVQSGKTWQDCEYKDAAKAATGECTATVGKRSSTKFSVATQTCQITPAEGPVVTAQYDCLGCVHPISTQSPDLEPILRHGIQYFNNNTQHSSLFMLNEVKRAQRQVVAGLNFRITYSIVQTNCSKENFLFLTPDCKSLWNGDTGECTDNAYIDIQLRIASFSQNCDIYPGKDFVQPPTKICVGCPRDIPTNSPELEETLTHTITKLNAENNATFYFKIDNVKKARVQVVAGKKYFIDFVARETTCSKESNEELTESCETKKLGQSLDCNAEVYVVPWEKKIYPTVNCQPLGMISLMKRPPGFSPFRSSRIGEIKEETTVSPPHTSMAPAQDEERDSGKEQGHTRRHDWGHEKQRKHNLGHGHKHERDQGHGHQRGHGLGHGHEQQHGLGHGHKFKLDDDLEHQGGHVLDHGHKHKHGHGHGKHKNKGKKNGKHNGWKTEHLASSSEDSTTPSAQTQEKTEGPTPIPSLAKPGVTVTFSDFQDSDLIATMMPPISPAPIQSDDDWIPDIQIDPNGLSFNPISDFPDTTSPKCPGRPWKSVSEINPTTQMKESYYFDLTDGLS | 0 | 4 | 8 | 6 | 1
3 | Kininogen-1 (protein) QESQSEEIDCNDKDLFKAVDAALKKYNSQNQSNNQFVLYRITEATKTVGSDTFYSFKYEIKEGDCPVQSGKTWQDCEYKDAAKAATGECTATVGKRSSTKFSVATQTCQITPAEGPVVTAQYDCLGCVHPISTQSPDLEPILRHGIQYFNNNTQHSSLFMLNEVKRAQRQVVAGLNFRITYSIVQTNCSKENFLFLTPDCKSLWNGDTGECTDNAYIDIQLRIASFSQNCDIYPGKDFVQPPTKICVGCPRDIPTNSPELEETLTHTITKLNAENNATFYFKIDNVKKARVQVVAGKKYFIDFVARETTCSKESNEELTESCETKKLGQSLDCNAEVYVVPWEKKIYPTVNCQPLGMISLMKRPPGFSPFRSSRIGEIKEETTVSPPHTSMAPAQDEERDSGKEQGHTRRHDWGHEKQRKHNLGHGHKHERDQGHGHQRGHGLGHGHEQQHGLGHGHKFKLDDDLEHQGGHVLDHGHKHKHGHGHGKHKNKGKKNGKHNGWKTEHLASSSEDSTTPSAQTQEKTEGPTPIPSLAKPGVTVTFSDFQDSDLIATMMPPISPAPIQSDDDWIPDIQIDPNGLSFNPISDFPDTTSPKCPGRPWKSVSEINPTTQMKESYYFDLTDGLS | 0 | 3 | 7 | 4 | 1
4 | Afamin (protein) LPTQPRDIENFNSTQKFIEDNIEYITIIAFAQYVQEATFEEMEKLVKDMVEYKDRCMADKTLPECSKLPNNVLQEKICAMEGLPQKHNFSHCCSKVDAQRRLCFFYNKKSDVGFLPPFPTLDPEEKCQAYESNRESLLNHFLYEVARRNPFVFAPTLLTVAVHFEEVAKSCCEEQNKVNCLQTRAIPVTQYLKAFSSYQKHVCGALLKFGTKVVHFIYIAILSQKFPKIEFKELISLVEDVSSNYDGCCEGDVVQCIRDTSKVMNHICSKQDSISSKIKECCEKKIPERGQCIINSNKDDRPKDLSLREGKFTDSENVCQERDADPDTFFAKFTFEYSRRHPDLSIPELLRIVQIYKDLLRNCCNTENPPGCYRYAEDKFNETTEKSLKMVQQECKHFQNLGKDGLKYHYLIRLTKIAPQLSTEELVSLGEKMVTAFTTCCTLSEEFACVDNLADLVFGELCGVNENRTINPAVDHCCKTNFAFRRPCFESLKADKTYVPPPFSQDLFTFHADMCQSQNEELQRKTDRFLVNLVKLKHELTDEELQSLFTNFANVVDKCCKAESPEVCFNEESPKIGN | 2 | 6 | 6 | 6 | 3
5 | Alpha-2-HS-glycoprotein (protein) chain 1: APHGPGLIYRQPNCDDPETEEAALVAIDYINQNLPWGYKHTLNQIDEVKVWPQQPSGELFEIEIDTLETTCHVLDPTPVARCSVRQLKEHAVEGDCDFQLLKLDGKFSVVYAKCDSSPDSAEDVRKVCQDCPLLAPLNDTRVVHAAKAALAAFNAQNNGSNFQLEEISRAQLVPLPPSTYVEFTVSGTDCVAKEATEAAKCNLLAEKQYGFCKATLSEKLGGAEVAVTCMVFQTQPVSSQPQPEGANEAVPTPVVDPDAPPSPPLGAPGLPPAGSPPDSHVL chain 2: TVVQPSVGAAAGPVVPPCPGRIRHFKV | 2 | 9 | 11 | 10 | 10
6 | Apolipoprotein A-IV (protein) EVSADQVATVMWDYFSQLSNNAKEAVEHLQKSELTQQLNALFQDKLGEVNTYAGDLQKKLVPFATELHERLAKDSEKLKEEIGKELEELRARLLPHANEVSQKIGDNLRELQQRLEPYADQLRTQVSTQAEQLRRQLTPYAQRMERVLRENADSLQASLRPHADELKAKIDQNVEELKGRLTPYADEFKVKIDQTVEELRRSLAPYAQDTQEKLNHQLEGLTFQMKKNAEELKARISASAEELRQRLAPLAEDVRGNLRGNTEGLQKSLAELGGHLDQQVEEFRRRVEPYGENFNKALVQQMEQLRQKLGPHAGDVEGHLSFLEKDLRDKVNSFFSTFKEKESQDKTLSLPELEQQQEQQQEQQQEQVQMLAPLES | 5 | 8 | 9 | 7 | 10
